Results reported in US20070116705A1.

target: N-terminus of murine PDE8, containing the PAS/PAC domain, fused to the LexA DNA binding domain (PDE8/LexA) (murine); test: yeast two-hybrid screen, number of high-stringency positive cDNA clones
Sequence (P0A7C2 other isoform, or with tags, fused parts or gaps limits assumed): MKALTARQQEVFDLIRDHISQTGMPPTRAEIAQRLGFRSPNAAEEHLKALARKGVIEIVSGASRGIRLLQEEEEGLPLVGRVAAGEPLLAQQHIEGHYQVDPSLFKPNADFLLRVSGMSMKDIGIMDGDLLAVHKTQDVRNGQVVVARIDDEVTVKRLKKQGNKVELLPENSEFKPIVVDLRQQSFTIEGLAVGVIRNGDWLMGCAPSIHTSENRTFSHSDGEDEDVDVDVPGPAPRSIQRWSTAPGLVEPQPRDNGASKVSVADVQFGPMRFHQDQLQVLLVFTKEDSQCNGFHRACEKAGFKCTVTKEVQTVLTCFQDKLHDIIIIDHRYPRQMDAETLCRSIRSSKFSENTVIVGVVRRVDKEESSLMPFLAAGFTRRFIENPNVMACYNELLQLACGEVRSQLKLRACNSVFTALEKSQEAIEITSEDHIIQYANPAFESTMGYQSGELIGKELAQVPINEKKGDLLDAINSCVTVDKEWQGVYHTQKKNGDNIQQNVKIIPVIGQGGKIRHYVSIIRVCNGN

# of clones | Substance
30 clones | LC8/PIN (dynein 8 kDa light chain) (from UniProt P63167 1-89)
8 clones | KIAA0898 (from UniProt O94972 1-964)
15 clones | LC8/PIN (Novel)
